The target in assay [1] is T1, APJ (endogenous, in patient-derived GSCs) (human, UniProt P35414 1-380).
T1 construct: Endogenous receptor of patient-derived glioblastoma stem-like cells, tested on intact cells, in membrane preparations or in lysates; also called Apelin receptor; APLNR
T1 sequence: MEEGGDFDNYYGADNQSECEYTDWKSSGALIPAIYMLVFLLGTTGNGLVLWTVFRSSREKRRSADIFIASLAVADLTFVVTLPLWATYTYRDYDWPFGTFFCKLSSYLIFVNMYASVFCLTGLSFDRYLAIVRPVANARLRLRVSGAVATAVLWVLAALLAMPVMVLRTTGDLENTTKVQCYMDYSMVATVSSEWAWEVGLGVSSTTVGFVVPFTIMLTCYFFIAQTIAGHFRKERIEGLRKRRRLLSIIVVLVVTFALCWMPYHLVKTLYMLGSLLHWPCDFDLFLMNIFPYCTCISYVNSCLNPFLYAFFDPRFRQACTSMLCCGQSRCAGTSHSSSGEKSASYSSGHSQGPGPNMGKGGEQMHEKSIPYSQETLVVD
Nature of the assay: radioactive binding assay in GSCs using GP130-siRNA and anti-GP130 antibodies. As to the method:
Prior to binding experiments, 2×10⁶ GSCs were washed three times with DMEM/F12, and resuspended in binding buffer (DMEM/F12, 40 mM HEPES, 1% BSA). In order to determine the amount of nonspecific binding, 1 μM unlabeled [<Glu⁶⁵, Nle⁷⁵, Tyr⁷⁷]apelin-13 was added. Cells were pre-incubated with GP130 blocking antibody (2 μg/ml) when indicated. Cells were then incubated with 400 pM [¹²⁵I][<Glu⁶⁵,Nlc⁷⁵,Tyr⁷⁷]apelin-13 in agitation for 6 h at 4° C., and radioactivity was measured with a gamma counter (Beckman).

The target of assay [2] is T2, HA-APJ (transfected in HEK-293T cells) (human, UniProt P35414 1-380).
T2 construct: HA-APJ construct from Dr. L. Zheng (Chun et al., 2008); also called APJ-HA; APJ-expression plasmid; not shown: HA tag
T2 sequence: T1 sequence
Nature of the assay: radioligand binding, membranes of HEK-293T transfected with APJ or with APJ and GP130. As to the method:
Homogenates were cleared by 5 min centrifugation at 3000 rpm. Then cells were resuspended in binding buffer ([…] Hepes, 5 mM MgCl2 and 1% BSA) and ultracentrifuged to obtain cell membranes. Membranes were then incubated with [125I][<Glu65,Nle75,Tyr77]apelin-13 (Perkin Elmer) in 100 μl of the binding buffer at room temperature for 90 min. In order to determine the amounts of nonspecific binding, unlabeled [<Glu65,Nle75,Tyr77] apelin-13 (Sigma) was simultaneously added After incubation, bound and free radioactivities were separated through rapid filtration using the glass-fiber filter units (GF/C, Packard Instrument Co.) of a cell harvester (Packard). Filter units were completely dried, and Microcinti O (Packard) was added to each well. The radioactivity of each well was counted with a TopCount liquid scintillation counter (Packard). The dissociation constant (Kd) and the number of binding sites (B max) were determined by the method of Scatchard.

The source of these data is patent US20170146518A1 (CENTRE NATIONAL DE LA RECHERCHE SCIENTIFIQUE CNRS, published 2017).

Non-standard residues stand in square brackets, D forms with d. No end group written: not given here. pGlu = O=C1CC[C@@H](C(=O)O)N1; Nle = CCCC[C@H](N)C(=O)O

In the case of [pGlu]RPRLSHKGP[Nle]PY (also: 125I label, place not given here) [[125I][<Glu65,Nle75,Tyr77]apelin-13], the binding result in assay [1] and in assay [2] was “binds” throughout.
